Results as given in publication PMC4222533.

How the values were obtained:
[1] = molecular target: integrin β3 cytoplasmic tail (UniProt P05106); test: ITC
[2] = molecular target: skelemin tandem IgC2 domains 4 and 5 with the interconnecting linker, C1354S (mouse); test: ITC

Chain of integrin β3 cytoplasmic tail (P05106 742-788): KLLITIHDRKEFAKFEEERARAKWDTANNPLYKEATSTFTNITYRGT

Kd [1]: 5.7 µM
dH [2]: -0.382 kcal/mol
stoichiometry N [2]: 1.26
Substance: integrin αIIb cytoplasmic tail peptide (starting from W988)
